Data published in PMC10713552 (Communications Biology, 2023).
Numbering of substitutions follows the chain as printed.

B1: 0304-IN3_T65G (antibody, V domains shown)
VH: QVQLQQWGPGLVNPSETLSLTCSVSGGSFATENYYWSWIRQHPGEGLEWIGNIYFSGNGYYNPSLNNRFTISFDTSKNHLSLKLPSVTAADTAVYYCARGTIYFDISGYRRVDPFHIWGQGTMVIVSS
VL: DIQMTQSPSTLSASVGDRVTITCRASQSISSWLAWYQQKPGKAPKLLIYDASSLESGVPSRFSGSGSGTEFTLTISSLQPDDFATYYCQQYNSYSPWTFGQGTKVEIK
notes: source: Expi293F, transfected
B2: 0325-LN3_T65I (antibody, V domains shown)
VH: B1 VH with G59I, I106L
VL: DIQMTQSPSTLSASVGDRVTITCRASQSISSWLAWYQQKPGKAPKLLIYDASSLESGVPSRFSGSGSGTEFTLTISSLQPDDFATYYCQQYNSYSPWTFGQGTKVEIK
notes: source: Expi293F, transfected
B3: 0357-N3_T65A (antibody, V domains shown)
VH: B1 VH with G59A, I106R
VL: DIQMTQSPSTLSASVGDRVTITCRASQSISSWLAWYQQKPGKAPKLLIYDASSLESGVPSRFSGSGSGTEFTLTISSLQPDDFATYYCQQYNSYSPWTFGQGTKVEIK
notes: source: Expi293F, transfected
B4: 0368-N3_T65P (antibody, V domains shown)
VH: B1 VH with G59P, I106R
VL: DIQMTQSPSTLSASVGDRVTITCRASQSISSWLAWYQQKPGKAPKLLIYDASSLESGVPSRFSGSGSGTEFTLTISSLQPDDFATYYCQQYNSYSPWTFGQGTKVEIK
notes: source: Expi293F, transfected
B5: 0355-MN3_T65W (antibody, V domains shown)
VH: B1 VH with G59W, I106M
VL: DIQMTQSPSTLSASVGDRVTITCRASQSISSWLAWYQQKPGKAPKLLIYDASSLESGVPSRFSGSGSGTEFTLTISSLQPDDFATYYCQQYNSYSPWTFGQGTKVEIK
notes: source: Expi293F, transfected
B6: 0376-YN3_T65A (antibody, V domains shown)
VH: B1 VH with G59A, I106Y
VL: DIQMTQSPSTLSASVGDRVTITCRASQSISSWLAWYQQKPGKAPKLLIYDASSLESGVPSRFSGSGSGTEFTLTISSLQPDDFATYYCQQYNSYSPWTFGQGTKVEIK
notes: source: Expi293F, transfected
B7: 0366-N3_T65M (antibody, V domains shown)
VH: B1 VH with G59M, I106R
VL: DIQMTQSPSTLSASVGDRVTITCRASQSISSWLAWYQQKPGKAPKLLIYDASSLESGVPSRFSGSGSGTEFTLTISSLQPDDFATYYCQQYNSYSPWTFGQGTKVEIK
notes: source: Expi293F, transfected
B8: 0336-LN3_T65W (antibody, V domains shown)
VH: B1 VH with G59W, I106L
VL: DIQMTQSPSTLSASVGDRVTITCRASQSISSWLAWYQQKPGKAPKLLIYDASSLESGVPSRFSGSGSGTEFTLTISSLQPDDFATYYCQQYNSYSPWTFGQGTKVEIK
notes: source: Expi293F, transfected
B9: 0375-N3_T65Y (antibody, V domains shown)
VH: B1 VH with G59Y, I106R
VL: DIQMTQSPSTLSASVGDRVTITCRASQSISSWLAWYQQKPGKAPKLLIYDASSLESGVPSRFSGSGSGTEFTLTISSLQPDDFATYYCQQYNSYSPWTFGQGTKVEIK
notes: source: Expi293F, transfected
B10: 0320-LN3_T65D (antibody, V domains shown)
VH: B1 VH with G59D, I106L
VL: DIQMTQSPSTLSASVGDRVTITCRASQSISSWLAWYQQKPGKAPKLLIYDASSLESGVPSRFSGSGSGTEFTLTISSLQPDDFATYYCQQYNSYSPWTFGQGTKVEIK
notes: source: Expi293F, transfected
B11: 0321-LN3_T65E (antibody, V domains shown)
VH: B1 VH with G59E, I106L
VL: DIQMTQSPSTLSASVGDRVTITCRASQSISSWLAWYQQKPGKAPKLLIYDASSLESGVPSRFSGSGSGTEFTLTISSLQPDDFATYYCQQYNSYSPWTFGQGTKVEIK
notes: source: Expi293F, transfected
B12: 0393-YN3_T65W (antibody, V domains shown)
VH: B1 VH with G59W, I106Y
VL: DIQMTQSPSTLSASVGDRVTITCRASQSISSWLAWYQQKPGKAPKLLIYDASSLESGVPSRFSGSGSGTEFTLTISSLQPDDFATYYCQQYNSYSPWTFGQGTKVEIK
notes: source: Expi293F, transfected
B13: 0339-MN3_T65D (antibody, V domains shown)
VH: B1 VH with G59D, I106M
VL: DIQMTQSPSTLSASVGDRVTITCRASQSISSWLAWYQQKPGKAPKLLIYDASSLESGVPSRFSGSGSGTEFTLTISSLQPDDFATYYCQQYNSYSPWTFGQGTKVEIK
notes: source: Expi293F, transfected
B14: 0361-N3_T65G (antibody, V domains shown)
VH: B1 VH with I106R
VL: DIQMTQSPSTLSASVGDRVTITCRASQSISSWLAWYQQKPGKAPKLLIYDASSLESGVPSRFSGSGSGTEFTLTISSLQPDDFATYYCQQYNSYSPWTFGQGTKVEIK
notes: source: Expi293F, transfected
B15: 0323-LN3_T65G (antibody, V domains shown)
VH: B1 VH with I106L
VL: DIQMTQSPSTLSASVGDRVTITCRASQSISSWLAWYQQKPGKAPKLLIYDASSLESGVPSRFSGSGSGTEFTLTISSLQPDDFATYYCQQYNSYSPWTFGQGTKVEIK
notes: source: Expi293F, transfected
B16: 0328-LN3_T65M (antibody, V domains shown)
VH: B1 VH with G59M, I106L
VL: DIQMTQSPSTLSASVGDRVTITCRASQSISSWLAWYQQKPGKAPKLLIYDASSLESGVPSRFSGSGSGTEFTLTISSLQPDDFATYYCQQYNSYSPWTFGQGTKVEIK
notes: source: Expi293F, transfected
B17: 0322-LN3_T65F (antibody, V domains shown)
VH: B1 VH with G59F, I106L
VL: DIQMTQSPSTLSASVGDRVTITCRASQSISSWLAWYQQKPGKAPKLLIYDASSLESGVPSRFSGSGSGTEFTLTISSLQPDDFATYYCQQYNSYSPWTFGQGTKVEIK
notes: source: Expi293F, transfected
B18: 0343-MN3_T65H (antibody, V domains shown)
VH: B1 VH with G59H, I106M
VL: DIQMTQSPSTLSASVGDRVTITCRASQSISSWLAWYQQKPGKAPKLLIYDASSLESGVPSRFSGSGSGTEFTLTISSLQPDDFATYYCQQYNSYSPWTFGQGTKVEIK
notes: source: Expi293F, transfected
B19: 0384-YN3_T65L (antibody, V domains shown)
VH: B1 VH with G59L, I106Y
VL: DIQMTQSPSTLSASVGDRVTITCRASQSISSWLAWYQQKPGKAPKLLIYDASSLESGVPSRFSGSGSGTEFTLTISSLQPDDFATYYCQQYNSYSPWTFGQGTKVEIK
notes: source: Expi293F, transfected

Biological target: D614G-Hexapro (WT) spike ectodomain (SARS-CoV-2 Wuhan-Hu-1 D614G, D614G)
Assay: BLI

Binder | Kd [nM] | koff [s⁻¹] | kon [M⁻¹ s⁻¹]
B1 | 45.4 | 0.000221 | 4880
B2 | 6.57 | 0.00131 | 199000
B3 | 0.562 | 0.000124 | 221000
B4 | 52.9 | 0.000253 | 4790
B5 | 0.474 | 0.00041 | 865000
B6 | 1.82 | 0.000425 | 233000
B7 | 8.15 | 2.08e-06 | 255
B8 | 0.15 | 0.000117 | 782000
B9 | – | – | 265
B10 | 226 | 0.000716 | 3160
B11 | 378 | 0.00157 | 4150
B12 | 189 | 0.000535 | 2840
B13 | 5.95 | 2e-05 | 3350
B14 | 549 | 0.000177 | 323
B15 | 145 | 0.000932 | 6420
B16 | 2.99 | 0.00124 | 415000
B17 | 2.52 | 0.000726 | 288000
B18 | 7760 | 0.000643 | 82.8
B19 | 4.26 | 0.000957 | 225000
